In patent publication US20040081647:

B1: MMP7 (enzyme, UniProt P09237 95-267, looked up, species assumed)
Matrilysin: YSLFPNSPKWTSKVVTYRIVSYTRDLPHITVDRLVSKALNMWGKEIPLHFRKVVWGTADIMIGFARGAHGDSYPFDGPGNTLAHAFAPGTGLGGDAHFDEDERWTDGSSLGINFLYAATHELGHSLGMGHSSDPNAVMYPTYGNGDPQNFKLSQDDIKGIQKLYGKRSNSRKK
B2: Cathepsin G (enzyme, UniProt P08311 21-244, looked up, species assumed)
Cathepsin G: IIGGRESRPHSRPYMAYLQIQSPAGQSRCGGFLVREDFVLTAAHCWGSNINVTLGAHNIQRRENTQQHITARRAIRHPQYNQRTIQNDIMLLQLSRRVRRNRNVNPVALPRAQEGLRPGTLCTVAGWGRVSMRRGTDTLREVQLRVQRDRQCLRIFGSYDPRRQICVGDRRERKAAFKGDSGGPLLCNNVAHGIVSYGKSSGVPPEVFTRVSSFLPWIRTTMRS
B3: ADAMTS4 (enzyme, UniProt O75173 213-837, looked up, species assumed)
A disintegrin and metalloproteinase with thrombospondin motifs 4: FASLSRFVETLVVADDKMAAFHGAGLKRYLLTVMAAAAKAFKHPSIRNPVSLVVTRLVILGSGEEGPQVGPSAAQTLRSFCAWQRGLNTPEDSDPDHFDTAILFTRQDLCGVSTCDTLGMADVGTVCDPARSCAIVEDDGLQSAFTAAHELGHVFNMLHDNSKPCISLNGPLSTSRHVMAPVMAHVDPEEPWSPCSARFITDFLDNGYGHCLLDKPEAPLHLPVTFPGKDYDADRQCQLTFGPDSRHCPQLPPPCAALWCSGHLNGHAMCQTKHSPWADGTPCGPAQACMGGRCLHMDQLQDFNIPQAGGWGPWGPWGDCSRTCGGGVQFSSRDCTRPVPRNGGKYCEGRRTRFRSCNTEDCPTGSALTFREEQCAAYNHRTDLFKSFPGPMDWVPRYTGVAPQDQCKLTCQAQALGYYYVLEPRVVDGTPCSPDSSSVCVQGRCIHAGCDRIIGSKKKFDKCMVCGGDGSGCSKQSGSFRKFRYGYNNVVTIPAGATHILVRQQGNPGHRSIYLALKLPDGSYALNGEYTLMPSPTDVVLPGAVSLRYSGATAASETLSGHGPLAQPLTLQVLVAGNPQDTRLRYSFFVPRPTPSTPRPTPQDWLHRRAQILEILRRRPWAGRK

Molecular target: recombinant human TNFα (RDI) (UniProt P01375)
Sequence (P01375 77-233): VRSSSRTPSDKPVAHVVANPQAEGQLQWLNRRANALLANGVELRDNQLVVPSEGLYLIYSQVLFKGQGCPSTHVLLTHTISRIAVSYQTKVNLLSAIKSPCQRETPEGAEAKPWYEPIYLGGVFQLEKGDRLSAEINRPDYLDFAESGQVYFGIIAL

| Protein | log reduction in TNFα activity (L929 cytotoxicity bioassay after overnight digestion) | inactivation of TNFα (L929 cytotoxicity bioassay after overnight digestion) |
| --- | --- | --- |
| B1 | MMP7 (1.22) |  |
| B2 |  | Cathepsin G (under: Proteases that did not inactivate TNF) |
| B3 |  | ADAMTS4 (under: Proteases that did not inactivate TNF) |
